Series [1] has as its system HeLa Kyoto. The series can be described thus: solubility in G1/S (NP-40 vs SDS abundance) (log2 ratio); higher = more soluble. Conditions: cell cycle stage: G1/S.
In series [2] the test system is HeLa Kyoto. The series can be described thus: solubility change mitosis vs G1/S (difference of NP-40 vs SDS log2 ratios) (log2 ratio difference); higher = more soluble in mitosis.
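Wherever solubility change mitosis vs G1/S (difference of NP-40 vs SDS log2 ratios) is given: synchronized HeLa Kyoto cells (double thymidine block for G1/S, nocodazole release for mitosis), protein amounts in NP-40 versus SDS lysates quantified by mass spectrometry, three biological replicates.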
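Wherever solubility in G1/S (NP-40 vs SDS abundance) is given: HeLa Kyoto cells arrested at G1/S by double thymidine block, proteins quantified by TMT10plex mass spectrometry in mild NP-40 versus SDS extracts, three biological replicates.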

Chain of CSNK1G1 (chain, as listed by the source): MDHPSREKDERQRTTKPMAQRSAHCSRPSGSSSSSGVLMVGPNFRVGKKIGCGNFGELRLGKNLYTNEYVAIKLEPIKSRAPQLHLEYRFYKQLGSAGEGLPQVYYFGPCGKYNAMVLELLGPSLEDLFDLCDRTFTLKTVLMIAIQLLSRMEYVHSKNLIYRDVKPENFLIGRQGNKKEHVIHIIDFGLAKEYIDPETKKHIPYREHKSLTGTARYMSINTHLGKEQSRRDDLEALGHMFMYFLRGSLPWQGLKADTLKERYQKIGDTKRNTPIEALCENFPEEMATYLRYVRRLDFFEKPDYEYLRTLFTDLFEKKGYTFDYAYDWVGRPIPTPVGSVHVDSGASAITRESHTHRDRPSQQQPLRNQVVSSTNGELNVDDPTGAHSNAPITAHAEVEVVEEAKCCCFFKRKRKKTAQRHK

For “MKEMVGGCCVCSDERGWAENPLVYCDGHACSVAVHQACYGIVQVPTGPWFCRKCESQERAARVRCELCPHKDGALKRTDNGGWAHVVCALYIPEVQFANVLTMEPIVLQYVPHDRFNKTCYICEEQGRESKAASGACMTCNRHGCRQAFHVTCAQMAGLLCEEEVLEVDNVKYCGYCKYHFSKMKTSRHSSGGGGGGAGGGGGSMGGGGSGFISGRRSRSASPSTQQEKHPTHHERGQKKSRKDKERLKQKHKKRPESPPSILTPPVVPTADKVSSSASSSSHHEASTQETSESSRESKGKKSSSHSLSHKGKKLSSGKGVSSFTSASSSSSSSSSSSGGPFQPAVSSLQSSPDFSAFPKLEQPEEDKYSKPTAPAPSAPPSPSAPEPPKADLFEQKVVFSGFGPIMRFSTTTSSSGRARAPSPGDYKSPHVTGSGASAGTHKRMPALSATPVPADETPETGLKEKKHKASKRSRHGPGRPKGSRNKEGTGGPAAPSLPSAQLAGFTATAASPFSGGSLVSSGLGGLSSRTFGPSGSLPSLSLESPLLGAGIYTSNKDPISHSGGMLRAVCSTPLSSSLLGPPGTSALPRLSRSPFTSTLPSSSASISTTQVFSLAGSTFSLPSTHIFGTPMGAVNPLLSQAESSHTEPDLEDCSFRCRGTSPQESLSSMSPISSLPALFDQTASAPCGGGQLDPAAPGTTNMEQLLEKQGDGEAGVNIVEMLKALHALQKENQRLQEQILSLTAKKERLQILNVQLSVPFPALPAALPAANGPVPGPYGLPPQAGSSDSLSTSKSPPGKSSLGLDNSLSTSSEDPHSGCPSRSSSSLSFHSTPPPLPLLQQSPATLPLALPGAPAPLPPQPQNGLGRAPGAAGLGAMPMAEGLLGGLAGSGGLPLNGLLGGLNGAAAPNPASLSQAGGAPTLQLPGCLNSLTEQQRHLLQQQEQQLQQLQQLLASPQLTPEHQTVVYQMIQQIQQKRELQRLQMAGGSQLPMASLLAGSSTPLLSAGTPGLLPTASAPPLLPAGALVAPSLGNNTSLMAAAAAAAAVAAAGGPPVLTAQTNPFLSLSGAEGSGGGPKGGTADKGASANQEKG [MLLT6]”, the “solubility in G1/S (log2)” value with HeLa Kyoto [1] was -1.14. The “solubility change mitosis (log2)” value with HeLa Kyoto [2] is 0.828.
Taken in the same sequence, the figures for CDK5RAP2 were -0.157 and -0.239.
The corresponding values for “MNALLEQKEQQERLREAAALGDIREVQKLVESGVDVNSQNEVNGWTCLHWACKRNHGQVVSYLLKSGADKEILTTKGEMPVQLTSRREIRKIMGVEEEDDDDDDDDNLPQLKKESELPFVPNYLANPAFPFIYTPTAEDSAQMQNGGPSTPPASPPADGSPPLLPPGEPPLLGTFPRDHTSLALVQNGDVSAPSAILRTPESTKPGPVCQPPVSQSRSLFSSVPSKPPMSLEPQNGTYAGPAPAFQPFFFTGAFPFNMQELVLKVRIQNPSLRENDFIEIELDRQELTYQELLRVCCCELGVNPDQVEKIRKLPNTLLRKDKDVARLQDFQELELVLMISENNFLFRNAASTLTERPCYNRRASKLTY [ANKRD40]” are -0.0058 and -0.00743.
The corresponding values for “MAPRKGSSRVAKTNSLRRRKLASFLKDFDREVEIRIKQIESDRQNLLKEVDNLYNIEILRLPKALREMNWLDYFALGGNKQALEEAATADLDITEINKLTAEAIQTPLKSAKTRKVIQVDEMIVEEEEEEENERKNLQTARVKRCPPSKKRTQSIQGKGKGKRSSRANTVTPAVGRLEVSMVKPTPGLTPRFDSRVFKTPGLRTPAAGERIYNISGNGSPLADSKEIFLTVPVGGGESLRLLASDLQRHSIAQLDPEALGNIKKLSNRLAQICSSIRTHK [CDCA8]” are -1.64 and 0.0931.
Regarding “MSDRKAVIKNADMSEDMQQDAVDCATQAMEKYNIEKDIAAYIKKEFDKKYNPTWHCIVGRNFGSYVTHETKHFIYFYLGQVAILLFKSG [DYNLL2]”, the “solubility in G1/S (log2)” value in the series on HeLa Kyoto [1] was -0.415. The “solubility change mitosis (log2)” value with HeLa Kyoto [2] stood at 0.249.
In the case of “MKLLSLVAVVGCLLVPPAEANKSSEDIRCKCICPPYRNISGHIYNQNVSQKDCNCLHVVEPMPVPGHDVEAYCLLCECRYEERSTTTIKVIIVIYLSVVGALLLYMAFLMLVDPLIRKPDAYTEQLHNEEENEDARSMAAAAASLGGPRANTVLERVEGAQQRWKLQVQEQRKTVFDRHKMLS [TMEM9]”, the “solubility in G1/S (log2)” value with HeLa Kyoto [1] is 0.254. For the same substance, the “solubility change mitosis (log2)” value in the series with HeLa Kyoto [2] came to 0.292.
Taken in the same sequence, the figures for “MAPEENAGTELLLQSFERRFLAARTLRSFPWQSLEAKLRDSSDSELLRDILHKTVKHPVCVKHPPSVKYARCFLSELIKKHEAVHTEPLDELYEALAETLMAKESTQGHRSYLLPSGGSVTLSESTAIISYGTTGLVTWDAALYLAEWAIENPAVFTNRTVLELGSGAGLTGLAICKMCRPRAYIFSDCHSRVLEQLRGNVLLNGLSLEADITAKLDSPRVTVAQLDWDVATVHQLSAFQPDVVIAADVLYCPEAIMSLVGVLRRLAACREHQRAPEVYVAFTVRNPETCQLFTTELGRAGIRWEVEPRHEQKLFPYEEHLEMAMLNLTL [EEF2KMT]” were 0.0707 and -0.00202.
Taken in the same sequence, the figures for “MPLTGVGPGSCRRQIIRALCLLLLLLHAGSAKNIWKRALPARLAEKSRAEEAGAPGGPRQPRADRCPPPPRTLPPGACQAARCQADSECPRHRRCCYNGCAYACLEAVPPPPVLDWLVQPKPRWLGGNGWLLDGPEEVLQAEACSTTEDGAEPLLCPSGYECHILSPGDVAEGIPNRGQCVKQRRQADGRILRHKLYKEYPEGDSKNVAEPGRGQQKHFQ [WFDC1]” were 0.101 and 0.522.
Taken in the same sequence, the figures for “MSKLPRELTRDLERSLPAVASLGSSLSHSQSLSSHLLPPPEKRRAISDVRRTFCLFVTFDLLFISLLWIIELNTNTGIRKNLEQEIIQYNFKTSFFDIFVLAFFRFSGLLLGYAVLRLRHWWVIAVTTLVSSAFLIVKVILSELLSKGAFGYLLPIVSFVLAWLETWFLDFKVLPQEAEEERWYLAAQVAVARGPLLFSGALSEGQFYSPPESFAGSDNESDEEVAGKKSFSAQEREYIRQGKEATAVVDQILAQEENWKFEKNNEYGDTVYTIEVPFHGKTFILKTFLPCPAELVYQEVILQPERMVLWNKTVTACQILQRVEDNTLISYDVSAGAAGGVVSPRDFVNVRRIERRRDRYLSSGIATSHSAKPPTHKYVRGENGPGGFIVLKSASNPRVCTFVWILNTDLKGRLPRYLIHQSLAATMFEFAFHLRQRISELGARA [STARD3]” were -0.0414 and -0.178.
In the case of HELZ2, the “solubility in G1/S (log2)” value in the series on HeLa Kyoto [1] is -0.293. In addition, the “solubility change mitosis (log2)” value in the series on HeLa Kyoto [2] was -0.0125.
As for “MADLHRQLQEYLAQGKAGGPAAAEPLLAAEKAEEPGDRPAEEWLGRAGLRWTWARSPAESAAAGLTCLPSVTRGQRLAAGGGCLLLAALCFGLAALYAPVLLLRARKFALLWSLGSALALAGSALLRGGAACGRLLRCEEAPSRPALLYMAALGATLFAALGLRSTLLTVLGAGAQVAALLAALVGLLPWGGGTALRLALGRLGRGAGLAKVLPV [SFT2D3]”, the “solubility in G1/S (log2)” value in the series with HeLa Kyoto [1] was -0.165. In addition, the “solubility change mitosis (log2)” value with HeLa Kyoto [2] was -0.136.
The corresponding values for “MMFRSDRMWSCHWKWKPSPLLFLFALYIMCVPHSVWGCANCRVVLSNPSGTFTSPCYPNDYPNSQACMWTLRAPTGYIIQITFNDFDIEEAPNCIYDSLSLDNGESQTKFCGATAKGLSFNSSANEMHVSFSSDFSIQKKGFNASYIRVAVSLRNQKVILPQTSDAYQVSVAKSISIPELSAFTLCFEATKVGHEDSDWTAFSYSNASFTQLLSFGKAKSGYFLSISDSKCLLNNALPVKEKEDIFAESFEQLCLVWNNSLGSIGVNFKRNYETVPCDSTISKVIPGNGKLLLGSNQNEIVSLKGDIYNFRLWNFTMNAKILSNLSCNVKGNVVDWQNDFWNIPNLALKAESNLSCGSYLIPLPAAELASCADLGTLCQATVNSPSTTPPTVTTNMPVTNRIDKQRNDGIIYRISVVIQNILRHPEVKVQSKVAEWLNSTFQNWNYTVYVVNISFHLSAGEDKIKVKRSLEDEPRLVLWALLVYNATNNTNLEGKIIQQKLLKNNESLDEGLRLHTVNVRQLGHCLAMEEPKGYYWPSIQPSEYVLPCPDKPGFSASRICFYNATNPLVTYWGPVDISNCLKEANEVANQILNLTADGQNLTSANITNIVEQVKRIVNKEENIDITLGSTLMNIFSNILSSSDSDLLESSSEALKTIDELAFKIDLNSTSHVNITTRNLALSVSSLLPGTNAISNFSIGLPSNNESYFQMDFESGQVDPLASVILPPNLLENLSPEDSVLVRRAQFTFFNKTGLFQDVGPQRKTLVSYVMACSIGNITIQNLKDPVQIKIKHTRTQEVHHPICAFWDLNKNKSFGGWNTSGCVAHRDSDASETVCLCNHFTHFGVLMDLPRSASQLDARNTKVLTFISYIGCGISAIFSAATLLTYVAFEKLRRDYPSKILMNLSTALLFLNLLFLLDGWITSFNVDGLCIAVAVLLHFFLLATFTWMGLEAIHMYIALVKVFNTYIRRYILKFCIIGWGLPALVVSVVLASRNNNEVYGKESYGKEKGDEFCWIQDPVIFYVTCAGYFGVMFFLNIAMFIVVMVQICGRNGKRSNRTLREEVLRNLRSVVSLTFLLGMTWGFAFFAWGPLNIPFMYLFSIFNSLQGLFIFIFHCAMKENVQKQWRQHLCCGRFRLADNSDWSKTATNIIKKSSDNLGKSLSSSSIGSNSTYLTSKSKSSSTTYFKRNSHTDNVSYEHSFNKSGSLRQCFHGQVLVKTGPC [GPR126]” are -0.117 and -0.0428.
Taken in the same sequence, the figures for “MGTFCSVIKFENLQELKRLCHWGPIIALGVIAICSTMAMIDSVLWYWPLHTTGGSVNFIMLINWTVMILYNYFNAMFVGPGFVPLGWKPEISQDTMYLQYCKVCQAYKAPRSHHCRKCNRCVMKMDHHCPWINNCCGYQNHASFTLFLLLAPLGCIHAAFIFVMTMYTQLYHRLSFGWNTVKIDMSAARRDPLPIVPFGLAAFATTLFALGLALGTTIAVGMLFFIQMKIILRNKTSIESWIEEKAKDRIQYYQLDEVFVFPYDMGSRWRNFKQVFTWSGVPEGDGLEWPVREGCHQYSLTIEQLKQKADKRVRSVRYKVIEDYSGACCPLNKGIKTFFTSPCTEEPRIQLQKGEFILATRGLRYWLYGDKILDDSFIEGVSRIRGWFPRKCVEKCPCDAETDQAPEGEKKNR [ZDHHC6]” were -0.0586 and -0.272.
Taken in the same sequence, the figures for “MRTEAEAAGPPLEPGDFVQLPVPVIQQLYHWDCGLACSRMVLRYLGQLDDSEFERALQKLQLTRSIWTIDLAYLMHHFGVRHRFCTQTLGVDKGYKNQSFYRKHFDTEETRVNQLFAQAKACKVLVEKCTVSVKDIQAHLAQGHVAIVLVNSGVLHCDLCSSPVKYCCFTPSGHHCFCRTPDYQGHFIVLRGYNRATGCIFYNNPAYADPGMCSTSISNFEEARTSYGTDEDILFVYLDS [GUCD1]” were -0.455 and -0.00182.
CSNK1G1: in the series on HeLa Kyoto [1], the “solubility in G1/S (log2)” value is -0.3. In the series with HeLa Kyoto [2], the “solubility change mitosis (log2)” value amounted to 0.0486.
